Measurements as given in IntAct's records for PubMed 31631010.

B1: Palmitoyltransferase ZDHHC5 (Mus musculus), Q8VDZ4 (parent)
chain: MPAESGKRFKPSKYVPVSAAAIFLVGATTLFFAFTCPGLSLNVSPAVPIYNAIMFLFVLANFSMATFMDPGIFPRAEEDEDKEDDFRAPLYKTVEIKGIQVRMKWCATCRFYRPPRCSHCSVCDNCVEEFDHHCPWVNNCIGRRNYRYFFLFLLSLTAHIMGVFGFGLLYVLYHIEELSGVRTAVTMAVMCVAGLFFIPVAGLTGFHVVLVARGRTTNEQVTGKFRGGVNPFTNGCCNNVSRVLCSSPAPRYLGRPKKEKTIVIRPPFLRPEVSDGQITVKIMDNGIQGELRRTKSKGSLEITESQSADAEPPPPPKPDLSRYTGLRTHLSLATNEDSSLLGKDSPPTPTMYKYRPGYSSSSTSAAMPHSSSAKLSRGDSLKEPTSIADSSRHPSYRSEPSLEPESFRSPTFGKSFHFDPLSSGSRSSSLKSAQGTGFELGQLQSIRSEGTTSTSYKSLANQTRNGSLSYDSLLTPSDSPDFESVQAGPEPDPPLGYTSPFLSARLAQQREAERHPRLLPTGPPHREPSPVRYDNLSRHIVASLQEREKLLRQSPPLAGREEEPGLGDSGIQSTPGSGHAPRTSSSSDDSKRSPLSKTPLGRPAVPRFGKPDGLRSRGLGSPEPGTTAPYLGRSISYSSQKAPSGVSETEEVALQPLLTPKDEVQLKTTYSKSNGQPKSIGSASPGPGQPPLSSPTRGGVKKVSGVGGTTYEISV

Variants of: B1
Details: with goga7_human GOLGA7, Q7Z5G4

Variant	effect of a mutation on the interaction
C134S	with no effect
C236S;C237S;C245S	disrupting interaction strength
